From a protein production outcome set (Wang et al. 2014) come the findings set out here.

The nature of the data set: label from the status in PepcDB records.
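Further: failed if final PepcDB status was selected cloned or expressed and not failed if soluble or beyond.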

As for “MQNAESWFKKYWHLSVLVIAALISVKLRILNPWNSVFTWTVRLGGNDPWYYYRLIENTIHNFPHRIWFDPFTYYPYGSYTHFGPFLVYLGSIAGIIFSATSGESLRAVLAFIPAIGGVLAILPVYLLTREVFDKRAAVIAAFLIAIVPGQFLQRSILGFNDHHIWEAFWQVSALGTFLLAYNRWKGHDLSHNLTARQMAYPVIAGITIGLYVLSWGAGFIIAPIILAFMFFAFVLAGFVNADRKNLSLVAVVTFAVSALIYLPFAFNYPGFSTIFYSPFQLLVLLGSAVIAAAFYQIEKWNDVGFFERVGLGRKGMPLAVIVLTALIMGLFFVISPDFARNLLSVVRVVQPKGGALTIAEVYPFFFTHNGEFTLTNAVLHFGALFFFGMAGILYSAYRFLKRRSFPEMALLIWAIAMFIALWGQNRFAYYFAAVSAVYSALALSVVFDKLHLYRALENAIGARNKLSYFRVAFALLIALAAIYPTYILADAQSSYAGGPNKQWYDALTWMRENTPDGEKYDEYYLQLYPTPQSNKEPFSYPFETYGVISWWDYGHWIEAVAHRMPIANPFQAGIGNKYNNVPGASSFFTAENESYAEFVAEKLNVKYVVSDIEMETGKYYAMAVWAEGDLPLAEKYYGGYFYYSPTGTFGYANSQWDIPLNSIIIPLRIPSELYYSTMEAKLHLFDGSGLSHYRMIYESDYPAEWKSYSSQVNLNNESQVLQTALYEAVMRARYGVSPTMGTQEVLYKYAYTQLYEKKMGIPVKIAPSGYVKIFERVKGAVVTGKVSANVTEVSVNATIKTNQNRTFEYWQTVEVKNGTYTVVLPYSHNSDYPVKPITPYHIKAGNVVKEITIYESQVQNGEIIQLDL”, the protein production result is given as “failed”.

For the sequence “MQNIILTTKKIFRLAFILILIAATFMSCKTAPAKEETLIDLIKAGKSEELQERLNSSAINMKDEEGNSLLHIAAVKNDPIIVRLLINMDADIEAKNNTGATPLAAALNNSAYDAVKVLVEYNANIFAKDNEGEKPFDTACKNNVPNLILTAQTIKQKDENQDTVLHLAVKAMDKQLTKQILAIAPPETVYNKENLSPLAIAYKHNNAEDSAEIASILLLAGIQPMGKDFAEFETASLARNYSMRFADGETLLHIFARKGYTGFLKFLIKNKVPIDVKDISSSTAMQEAVYNGNTEAAILLLQAGADPNSRNSSGNTALHLVMPEASRSKLFNELITAGANPNLKDNYGETPLHVAARIGMNDDILDQLLKAGADINERNKKGQTPLILAIDRNQTQQVDFLINHGADIHAEDKSGESAFIHSLSMGLPMVEHVVTEKNSTERDSNGSTPLHLAVSHRASSDIIYYLVEKKSLINTRNKLGNTPLHIAAEKNYREAGEILIANNADIFYANLNGDSPLKFALTLREGREDWMINSHTIGAGDGAGNTPLHLAAEWQILPMIPYLIDKGADINARNTNNETPLFNAVRTDSPEAIKALLGEGVSKKADLDARDFLGNTILHAAVRWSAYKAADFILSKDTEEYVRLINAKNLAGKTVLHEAAKQGEIKFINIFLKAKVDVNAADETGRSPLSEAVLANQTQAIDLLLKNGASPVQQDMYGRTALHEAVEISEESIILVRNAGGNPLTKDAYGKTPFSLALNKNIRTVDLVLGNDSLLADTDGDTPLHIAVKERVSLDYFQRIMKKKYPVNKRNKNGETALLLAIQNSQKEITRALLAGGADPFIVNNKGVSAITEIFMHHPDFTPIAAEFSLKQTDTLGEGMLHYAAKFADVQTLKDILALPGIKLDVKNTAGETPYQVALRWNRSEIAELLKTE”, the protein production result was “failed”.

On to “MQNIVIRQCGHEDESWMNTLYKQNSKQALYQLGKSLDEGFVQDNAHFDQVMKQWIEIGAVYAAEIEGDPVGFLVIQRERAQHGPEIIQYISSHENILILQERALSDLHYAGYGPVLVSPHARGKGVAKALHDHALHILKAEKFDAMVAFVDAENPTSLKIHVDALDMQIIDKVVLASGQFFIIGQVIG”, for which the protein production result is “failed”.

In the case of “MQNNSYGYAVSVRVGGKEHRHWERYDIDSDFLIPADSFDFVIGRLGPEAAIPDLSGESCEVVIDGQIVMTGIIGSQRHGKSKGSRELSLSGRDLAGFLVDCSAPQLNVKGMTVLDAAKKLAAPWPQIKAVVLKAENNPALGKIDIEPGETVWQALTHIANSVGLHPWLEPDGTLVVGGADYSSPPVATLCWSRTDSRCNIERMDIEWDTDNRFSEVTFLAQSHGRSGDSAKHDLKWVYKDPTMTLHRPKTVVVSDADNLAALQKQAKKQLADWRLEGFTLTITVGGHKTRDGVLWQPGLRVHVIDDEHGIDAVFFLMGRRFMLSRMDGTQTELRLKEDGIWTPDAYPKKAEAARKRKGKRKGVSHKGKKGGKKQAETAVFE”, the protein production entry is “not failed”.

Consider “MQPCPSEAPRVLHALTRRGMALALAATLSLVLSACGGGGDDTAAATTAPPSSNAVTPSPSPAPAPTYSVGGTVAGLGSGLSVKLLNNGGDAVTVTANGNFQFPTALASGAQYAATVGTRPSGQQCTIANDSGTMGSANVTNIAVTCSTRPLFAYTANSNDNTVSAYTLDPTTGAPTLIGTPISVGQGPLSLIADKAGKFVYVVDGNDNSVTTLAIDSETGLLTISGTPATTGMQPFNIARTPASTFAYTTNFGDNTLSGFSINATTGVLTSIGTIAAGTNPYTIVINKAGTFAYVVNAASGAGTPSAMVFSINGATGALTAVGSPVATGNAPFYIALHPAGTFAYVANSQDNTVQVYAINQTTGALTAVGSPVATGQGPIPIAIHPSGLFAYVGNVFDNTVSLYAINTGTGALTLKSTLATGNDPLAITLNDAGSIAYIVNGVDHDVVAYAVDSSTGALTSVATAQTGLLPRAFAIVAVP”, for which the protein production entry was “failed”.

Take “MQPEITSYRHPATGTVSYLVVDPATFLCAIVDPVLDFDPVTEEIDTRFVDAIIADIRAKDLGPTWILETGLHTGHLSAAGHLKYETGASVCIGAGVVESLKRLAPQFGETMVDLDGWDFDKLAQDGDTFPMGGLEITPIALTGRLPGAVAYRMADMVFTGDLVLAPAEGSGRCDIPGADAGKAWDDARKILALPPETRIMPGVSATAACESTVADAKASNIQLNDTIDQLDFIALRTAADAFLPDPELAAAALRVAIRAGRPPSPPESGPRFPAVDLSKL”: the protein production entry was “failed”.

On to “MQPLLRTAGFSLLLLAASCGVGAQPEPQNSRLTAIKMDGELPARAAIAGLFAELDFQQATQSYLWALPLVSYAQWQGEFRDKLHAGNGDLMVLESYEDKLGVITANATTPYILGFVDLNQTGPMVVELPPGPTAGGVGDFWQRAITDMGQTGPDQGKGGKYLVLPPGHPEPSDADQYYLAKSQTMNVLVGFRVLDPDPAKGKALVQQFKMYPYAQRATPPATRLLSPGGKPWSGTQPRGMAYWERLHQIIQQEPVNERDRFYMAMLASLGIEKDKPFNPNEHQRQALEQGARMGELIAQANTFAKRFADAQYWPDRQWDKVLNIADPSQRVAYYDQLWERSAWFYEAVTNTKGMVSKTPGLGQTYLGAYTDHNGQWLDGGKHYRLHLGSNPPARQFWSLTVYDSASRCLIDNPQRKADLSSRQDLKKNPDGSLDLYFGPSAPKGLESNWVQTLPGKHWFSYFRLYAPTEAYFDKRWKLDDITLVQ”, for which the protein production result is “failed”.

In the case of “MQPRLVIAGTHSGVGKTTVTLGLMAAFVEKGNIVQGFKCGPDYIDPSYHRAVTKRASRNLDSWMVSEDVVNDIFIEGCNGADLSIIEGVMGFYDGKASTSDKGSTADISLLLQAPVLLVVDISGMARSAAAVVKGFQQLNEKVKIAGVILNGAGSERHAEMCSEAIKEACGIPALGYLKKGDVPSIPERHLGLVPALERGEHDSLFSQLAAVVSRQFDLERIERLALEASALSRRTNLFQQTKRPSVVKIAVAYDAAFHFYYEENFTLLRQAGAELVYFSPLRGEDLPSHCDGLYLGGGFPEEFADELSQWIKDHPQLKKRVQSGLPTLAECGGYMFLGEQLTTTKGKTVEMAGVIPMVVQMENKLVSLGYRDVTPLDDSFLLSKGQQIRGHEFHYSKAVYTETERPAYFVKGLFGEGKEGYMSDHLLAGYTHLHFASEPAVATQWVKACEVYKNRRLHRGQVSQLEHHHHHH”, the protein production entry is “not failed”.

On to “MQQHSSKTAYVYSDKLLQYRFHDQHPFNQMRLKLTTELLLNANLLSPEQIVQPRIATGDELMLIHKYDYVEAIKHASHGIISEDEAKKYGLNDEENGQFKHMHRHSATIVGGALTLADLIMSGKVLNGCHLGGGLHHAQPGRASGFCIYNDIAITAQYIAKEYNQRVLIIDTDAHHGDGTQWSFYADNHVTTYSIHETGKFLFPGSGHYTERGEDIGYGHTVNVPLEPYTEDASFLECFKLTVEPVVKSFKPDIILSVNGVDIHYRDPLTHLNCTLHSLYEIPYFVKYLADSYTNGKVIMFGGGGYNIWRVVPRAWSHVFLSLIDQPIQSGYLPLEWINKWKHYSSELLPKRWEDRLNDYTYVPRTKEISEKNKKLALHIASWYESTRQLEHHHHHH”, for which the protein production result is given as “failed”.

On to “MQQTVTYGAKWKQFLTIFTPIVITQLTLFSMTFFDTTMSGNYSNQALAGVAIGSSFWAPVNAAFSGLLMAITPIIAQLIGAKKEKQVKNTVHNGLYIALFLAFILILINFLVVPTILTHMPVTAEVAHIARHFLNGICIGIPAFFISAILRSFIDSLGLTRVTMLITLCTVPFNIFLNYCFIFGNFGFPEMGGAGSGYATGITYWLVVLVSVILIQTQTRLRKFGIFKGLTALRFSKVKEIIGIGVPNGLTILFETSIFSAVTILMGAFGTETIAAHQSANSVCTLLYAFPLSVASTLTILGGYETGAKRLKDAKQYRHIGMTAAILIGCINGAILFFFRDIIAGFYTNDAELSDLIMHFLVYAILFQFADAVLSPVLGALRGYKDVAITSIIAFISYWLIGLPVGYGLSFTNLGPFGYWIGLSTGLFVAAFILSIRVRKTERKLSLNAKNAEISS”, for which the protein production entry was “not failed”.

On to “MQQVGFGTWNWVAVIVYLVLMLLVGAYFTKRASQNTDSFFTASGRLPSWAVGFSIYATTLSAITFMSTPEKAFLTDWSYIAGNIAIVAIIPLLIYFYVPFFKKLKVTSAYEYLEARFRPSVRVIGSLLFVLFHLGRVAIVIYLPTLAITAVSDLNPYVVASLVGILCILYTFLGGFEGVVWSDFIQGIILLGGAAAIIILGIIHIKGGMGTVVTDALDHKKLISADNWKFNTAAAAIPIIFLGNIFNNLHQYTASQDVVQRYQASESMSETKKSLWMNGVLALISAPLFYGMGTMLYSFYTHESALPEGFNTSSIVPYLILTEMPPFIAGLLIATIFAAAQSTISSSLNSISACLSVDIKHRIFGKGKEKDEVTFARWMIILSGLFGFGMSIYLIASDSNDLWDLFLLITGLVGVPLAGVFAVGIFTKRTNTLGVICGLALGIIFAYIFNGIGGGNSPFFVSIISFLVAFIFSYLIRIVIPDKKKDIVGLTIFDIKEKSNYVSKIHVKK”, for which the protein production result was “failed”.

Take “MQRFLSIALALCVGLTLSLDASAKRFGGGKSSGSAPIHQTRQATPTTPAAAPTVPGRAPAAASGASRWLGPLAGLAAGGLLASMFMGDGFEGFQIMDFLIVALIAFLVFRFIAARRRQQQPQMAMPGHAPMQREAHAQPAQPSIFGGSAAPAATAAPVINAPAWFNEQSFLAAARNHFQSLQQHWDANEMDKISEFVTPQMLEFLKRERAELGDGFQSTYIDNLEVQLDGVDDRADRTDATLTFRGVSKNSRFDQGEVFSESWHMVRAQGENQPWLVAGIRQNS”: the protein production entry was “failed”.

Consider “MQRISVIVPMYNEARHITRTLDSVLRAARAATLDCELIVVDNGSTDQGPQRARELGARVLLCPGIGIGALRNRGAAVATGDSLAFLDADIEVPGNWLQLWQQAHAEQRAEVFALDCAAPASAPWFARAWQRRSLAGDPQPRLLPWMPTPNLCLQRAWFERVGGFNEQLRTGEDKDFGLRLHAAGARQLSLPQPQVLHWGYEASWAEWAGKERWRQGSHVQLLKGSGLSLRLLRFPLLCLACALLSLVALLCLLAGLPGAAGLCLLLGALAPLALAVRQGLRQRDPLFVLQLWLLHWVRLHLGALALVQALFNRSAERPDRG”, for which the protein production entry is listed as “failed”.

Regarding “MQRLLLANDLPGVGKVALATSIPIAAACQVETMLLPTVLLSSHTGGFPDVVIEDMTDLNQAYFEQWKNLNLELAGILSGYCRNPQQLSQLAMYAKHTETPLIVDPIMGDSGRLYTGFTSSYVEAMKELTQSAQLILPNITEASLLTGRNYLGDSYDIHDIEDLLEALAEQVSADIVLTGISFDDSQIGVAYFQQETGEITTYMSKKYPANFFGTGDILSTLLAVATIQQINLHQAIPLALDFIDKSLERTLALDRDLKFGISFEPFLAELQQAFQILKEKL”, the protein production result was “failed”.
